US10745461B2, “Pulsed introduction of low-dose RANKL as a therapy for diet-induced atherosclerosis” (Saint Louis University, priority 2015, dated 2020)
“Also recorded” adds a separate entry of the source.

How the values were obtained:
[1] = system: FoxP3 induction in OT-I CD8 T-cells by osteoclasts; experiment: TcREG (FoxP3) induction in OT-I CD8 T-cells co-cultured with bone marrow-derived osteoclasts; format: cell-based, mice; conditions: in culture, IL-17 10 ng/ml, increasing TNFα, DAPT 10 μM, Fc proteins added to T-cells prior to co-culture
Method: It was also determined that IL-17 and TNFα suppresses TcREG induction by osteoclasts. […] Another possibility is that loss of estrogen leads to increased production of the pro-inflammatory cytokines by T-cells that increase osteoclast activity. Without being limited to any method of operation, it is actually expected that in the presence of pro-inflammatory cytokines osteoclasts fail to induce TcREG. As estrogen depletion lead to greater number of osteoclasts because of a decreased Fas ligand expression, the loss of TcREG induction and increased osteoclast numbers would tip the balance towards increased osteoclast resorption and net bone loss. To test fir this possibility, OC-iTcREG induction was measured in the presence of IL-17 and TNFα. […] To understand the underlying mechanism of how TNFα affects osteoclasts' ability to induce TcREG, the signals provided by osteoclasts to induce FoxP3 in the CD8 T-cells were investigated along with if these signals were affected by […].
(§1) The most common and well-studied costimulatory signals on antigen-presenting cells are CD80 (B7.1) and CD86 (B7.2). As CD80/CD86 double knockout mice are commercially available, osteoclasts were generated from bone marrow precursors of these mice. The CD80/CD86 null osteoclasts (as well as wild-type controls) were then used to prime OT-I T-cells in the presence and absence of antigen. […] OT-I CD8 T-cells activated by CD80/CD86 null osteoclasts produced IL-6, IL-2 and IFN-γ to levels indistinguishable from wild-type mice (FIG. 4B). Having ruled out CD80/CD86 as the costimulatory molecules, an osteoclast microarray dataset was queried for other costimulatory molecules expressed by osteoclasts. Osteoclasts that express CD200 and c-Mer were found. The role of CD200 was chosen for testing based on the phenotype of CD200^−/− mice and the reported role for CD200 in regulating TcREG.
The most, well characterized regulator of FoxP3 in T-cells is TGFβ. It has been previously shown that neutralization or addition of TGFβ has no effect on the induction of TcREG. Therefore identification of other pathways that can regulate the FoxP3 promoter in T-cells was sought. A number of previous studies have identified that the Notch signaling contributes to FoxP3 induction. To test if Notch signaling is important for TcREG induction by osteoclasts, the γ-Secretase inhibitor DAPT was initially used. Ligation of the Notch receptor by its ligand leads to cleavage of Notch by γ-secretase. […] Next, we identified the Notch ligands expressed in osteoclasts using reverse-transcription followed by PCR. […] Of the four, the osteoclast-precursors (bone marrow cells treated with M-CSF but not RANKL) express all of the ligands except DLL4 (FIG. 5C). To assess the role of DLL4 in TcREG (soluble) DLL4-Fc was added to OT-I CD8 T-cells prior to co-culturing with osteoclasts. […] To assess the role of DLL4 in vivo the induction experiments as described in FIG. 1 were performed: GFP negative (polyclonal) CD8 T-cells were purified by cell sorting and transferred into OT-II Rag^−/− mice. Two hours prior to RANKL treatment, DLL4-Fc or a control IgG1-Fc, were injected intravenously into the recipient mice, As described for FIG. 1, RANKL (0.125 mg/kg) was then administered on two consecutive days.
DLL-4 expression is repressed in the presence of […] and IL-17 but can be de-repressed by RANKL. […]

CD200 = CD200 expression in mature osteoclasts by qRT-PCR; format: cell-based, mouse; conditions: TNFα 20 ng/ml or IL-17A 10 ng/ml
Excerpt: as §1
(§2) Osteoclasts seeded on day 4 at 1.5×10^6 cells/ml were used in all experiments. RNA was isolated at time point described in Figure legends. 10 to 50 ng of RNA was used for first-strand cDNA synthesis in 50 μL reaction per kit instructions (Superscript III cDNA synthesis system; Invitrogen). In all cases 10% of the cDNA product was used in a 50 μL PCR reaction that contained 10 μM each forward and reverse primers. For quantitative PCR (qPCR) SYBR green system (Invitrogen) was used. Otherwise, cDNA was amplified (25 cycles) and the products resolved on 1.2% agarose gel and visualized by ethidium bromide staining.

DLL4 = DLL4 expression in mature osteoclasts by qRT-PCR; format: cell-based, mouse; conditions: overnight in 20 ng/ml TNFα or 10 ng/ml IL-17
Excerpt: DLL-4 expression is repressed in the presence of […] and IL-17 but can be de-repressed by RANKL. Having identified that DLL4 was required for osteoclasts to induce Foxp3 expression in CD8+ T cells we next tested if DLL-4 expression was affected by pro-inflammatory cytokines. […] As RANKL induced DLL4 in osteoclast precursors, it was hypothesized that adding additional RANKL may overcome the repression of DLL4 by TNFα. To assess the reversibility of DLL4 expression, mature osteoclasts were cultured overnight in 50 ng/ml RANKL and 20 ng/ml […], and then additional RANKL was added to the culture media (while maintaining 20 ng/ml TNFα) as shown in FIG. 5E. Indeed, addition of RANKL overcomes (within 24 hours) the repression of DLL4 by TNFα as assessed by qRT-PCR. […] The experiment was performed as above, but in this case FoxP3 induction in OT-I CD8 T-cells in the presence of OVA and either 10 ng/ml or 20 ng/ml TNFα was measured.
as §2

Molecule	effect of added agent on TcREG/FoxP3 induction by osteoclasts [1]	CD200 mRNA expression in mature osteoclasts (CD200)	DLL4 transcripts in mature osteoclasts after cytokine (DLL4)	CD200 mRNA expression in mature osteoclasts (CD200; listed as IL-17)	effect of added agent on TcREG/FoxP3 induction by osteoclasts ([1]; listed as IL-17)	DLL4 transcripts in mature osteoclasts after cytokine (DLL4; listed as IL-17)
C[C@H](NC(=O)Cc1cc(F)cc(F)c1)C(=O)N[C@H](C(=O)OC(C)(C)C)c1ccccc1 [DAPT, reference compound]	completely inhibited TcREG induction; also recorded: completely abrogated FoxP3 induction	–	–	–	–	–
TNFα [reference compound]	reduced TcREG induction in a dose dependent manner; also recorded: greatly impaired	had no effect on CD200 expression; also recorded: not altered	DLL4 expression was repressed; also recorded: significantly reduced	–	–	–
IL-17A: recombinant murine IL-17A, pro-inflammatory cytokine (protein, UniProt Q62386 26-158, looked up) Interleukin-17A: AAIIPQSSACPNTEAKDFLQNVKVNLKVFNSLGAKVSSRRPSDYLNRSTSPWTLHRNEDPDRYPSVIWEAQCRHQRCVNAEGKLDHHMNSVLIQQEILVLKREPESCPFTFRVEKMLVGVGCTCVASIVRQAA	significantly reduced	had no effect on CD200 expression	DLL4 expression was repressed	not altered	greatly impaired	significantly reduced
